{
  "source": "the NTF2 design screens of Basanta et al. (2020)",
  "data": [
    {"test": "protease stability score; higher = more stable; yeast display proteolysis, trypsin and chymotrypsin;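 note: log10 excess protease needed over predicted unfolded state with 0 meaning unfolded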", "values": [
      {"sequence": "EDENRKRIEHFLEVKEHGNPDEAKRLADPNVHLKVGDQTVHGRSQLSKILEKEVKEIRFSMQIDSYDDRPGRIKMSATMVLNINGQPIKVTFDAEYVLDNGRISHVEIRMDPTRLHEIKK", "protease stability score": 0.64},
      {"sequence": "DEEQVQKVVDKLIKAVQNGNRKQIVDLVKENVEFTLADETYKGKDDVQTVIKRLHEVGAEVHVDRYDVRGDTAHADTRWHMDDQEMHVTVEYVVRGDRVEQVHVQWSEEAKKVHKKG", "protease stability score": -0.044},
      {"sequence": "DEKKAQKLMKKAFKMIKDGNEDEVRKLGKPNVKYEYADQQYEGEDAVRVAVQIVKRVGAEDKTETQEVKGDTARAVFVYKKGDTEVQTTAEVIYKGDKMEEARVKLSDEVKKVVHQG", "protease stability score": 0.124},
      {"sequence": "DEDHESRVVELLEEIVRKGDPDEVRRQADPDARVDYGDKRLHGRDFRKAAKIIEEMRVDHQQFTTYKTHNGRAQMLVTVEHNGERRDIQIIVHYRGDKMKEMRFDTG", "protease stability score": -0.224},
      {"sequence": "DEDHDVRVAENLLEAIRTGNEDEVTRLADENAELEIGDHRYHGREQVSSAAKRINDRADDISINEVHYTGDKLSVQMQMNVNGKNIVVDVVVVAHNGRVKTVRFQYTSEEDFKKFES", "protease stability score": 0.538},
      {"sequence": "DEEENQELAEKFVRAIQEGDPDQITDLLDENAKATVGDRTYHGRSQIADYIHEMLKKADHFEVQSVDVQGNHIVIHVQMDINGKQVHMIIKMELSNGKVKHLEIEHK", "protease stability score": 1.75},
      {"sequence": "DERKIEHAQRILKHNDKHKLQNLFDKNARLEIGDTTFTGRERAQHWARRLYQQADHFEVKSVDNNPNDLTVELVVRVNGHDIHFQFRFRIKNGRITSFQVDYTDEDDERKMKDVDR", "protease stability score": 0.369},
      {"sequence": "DENVLKRVKELLRTNNWEELANKADKDVEMRVGDKEWRGREQVVRAHKKLYDRVDHFKIDSMHWRNGHLVVNFVAEVNGKRAVMVLEMKVHNGRIKRITLEARDKDDEEFIEEALR", "protease stability score": 1.47},
      {"sequence": "DEDRRAREWVETMQDIVENNNERDMKKLFDPNARVSVGDREYHGEDEIAHVLQREMENADNIHIEVKSIIVHGDKVTVDLTVSVQVNGKTETDRVRMVLKDKDGRIQVVSVQQT", "protease stability score": 0.597},
      {"sequence": "DEELIKLAHELLRVFRRGDEDRFRQLVDPNARLQVGDTTLHGRENLAHHLRQVREHIRVDIKIDSMTAKGNKVDIKAKMNLEHNGRPDEKTVNFNVDVHNGKVHQMSFDVDS", "protease stability score": 0.714},
      {"sequence": "DEEQMKKVVEQLLQALQNKDPEKIVQLVDEDVEFTLVDEKYKGHEDVRKLVKKLVDAGAEFRIDRHEATGDQAHVDTQWKVGDYTLKVTVTYVVRDDKVEKVEIRWSEEAKKAMKEG", "protease stability score": 1.11},
      {"sequence": "DEDAQRQVEELLKAEHEGDPKKFQELADPNVNAIYGDKRVHGRETLADQLAERVREMRVHYDSIDLRVRGNKVNVHINAKFKYNGVPIEISMTVVFVFHNGRLQRREVSIPEEVQTELTR", "protease stability score": 0.129},
      {"sequence": "DEDEKTKLAEQAKDILQEGNFHEMMHLADENAKVVYGDRRYDGREKVHKVLRDFDDRVDKIDVKRVRVENGRAKIVADVEHDGQRTTVIIHIQAHNGKIRRIRFHTP", "protease stability score": 0.586},
      {"sequence": "DEEKENRDIQTLMKNMVTGNEQEVMKNADKNVNLVVGDKTYHGREKIREFVRQLRERADHQEIKSVHATNGRAQADMVVNVNGKDIRFTVTMEASNGKAKHIQFDPNFFRKIQS", "protease stability score": -0.079},
      {"sequence": "DEEEAKKVMEKWMKVVQKGDKDKVKKLYPPNVNWLNINTQKQGVEVVVKMMKQVQDKGAQFQVRRAEVKGDEAEMQYDLRIGDKTATFTVRIRAKGGQVEMVEVKVTEEAKKIVDTG", "protease stability score": 0.111},
      {"sequence": "DQEEAKKIVDKMLKAVENGNEEDLVKMGADGVEYRAGDKKAHGPEAIQEVVQYLKRKGVEVEVKEVQVKGDKAQTHVDYKVGNETMTATANATLKGGKIDRVEIDFDETLKKVIKDG", "protease stability score": 0.154},
      {"sequence": "DQREIVTKILRDFVKAFKTGDQDKYEKLVDKDVEYNIGDKTYHGREEAKKLFRELVKQVDHYSVHYKSISVRNGRAKVEAIQYYKHDGRTYHNKVSYTFRIQGDKIRMQDATFS", "protease stability score": 0.602},
      {"sequence": "DDQKEIEKVLEVIKRMDTGDEKNVKEMFDPNARASVGERTYHGREDIQSFARELKERVDHVRIDSMSAHGDKATVDLRMNENGRTERYSVRVQIHNGRARHLRYTTK", "protease stability score": -0.219},
      {"sequence": "DEEDVTRLAEEMVRAFESGNPEDWVKMLDENARVRIGDKVYHGREQVQTFANSWVSRADHARVESFSVHGDNIHIKAVMDIDGVRVQVIIVARAHNGRVQELRVEWRNEDQKKHVDK", "protease stability score": 1},
      {"sequence": "DDEARRVAETVMTAVSRGDEEKVKEMFDPNARFRVGNKEISGRENYADWLRKLQEHARVDVSDVKAKDQGDEVTAKVRFVLSVDGTPHTMNVDVHFSVDNGKIIDYKQRFDEDDLRRILK", "protease stability score": -0.155},
      {"sequence": "DQDLHTRFKTWVENLHEGDEDNLKSLADPNAKIKVGNKEYHGMDEFKKDQKRRRDQMRIQIEIDSVTVQGNKATAEFEMTLDVNGKPVRMRFRVQFEVHNGTIQSWEAQVSPEQQEKLDR", "protease stability score": 0.967},
      {"sequence": "DEDQELRSLAEDAVRAMQSNNPDDFVNLFPENARINIGDKNIHGREEIKKHAQEVNTKVDRFSVTIEHIHVHNGKAEFTVDFVMNINGRTERRRASFRIDRIGDKVRIHSADVK", "protease stability score": 0.571},
      {"sequence": "DEEVAKTMAEQWIKAVQKGDKEKLVKHYKPNVQWIDGDERTQGTDVVRKVMETAQKRGVEFQVRKRKVEGDQFEIVYDANVGNKTATFDIKFQVKGGKMEEMRVEVDERAKKVRKEG", "protease stability score": 0.094},
      {"sequence": "DEEQAHRLNEVLKTGDFERLKDQADPNVRIEVGEKRYHGREQFQKFMTIVQETVDDVHVRSIKVRGDTVNVHMVLNVNGVKAEFIVEAHVDDGRVKEIRFRATDDEQKKNWRKIVQ", "protease stability score": 1.11},
      {"sequence": "DEDDQRRKAETLVRQISTGNPDDLKKMVDPNVKVKVGDKEYHGREEMAKDIKHIEDAVDHLEVKSVDAHNGRIDIVIVMHINGTRVHMRVEFQLNNGKVKSAERRYTDQDQKNTFER", "protease stability score": -0.39},
      {"sequence": "DEKEKAKKMFEKWHDVWRTNDPKKMNELADKDARINVGEKNYHGREHVEKIWRDLMERIDHVQLRVQTITSTGDKVEIRATVVIDHNGKQDEDTYVYVFQIDNGTVSFVQVRQS", "protease stability score": 0.576},
      {"sequence": "DDEDADRMVKLIRTNDPETFARQMDPNARVEVGDKKVHGREEALKLLSELYNQADHFQVKSISRHNGRVTVDAILVVNGRTMRARIEVVVHNGRVKSARVKFTNPEDQKQMRRNVQ", "protease stability score": -0.185},
      {"sequence": "DQEAHRVFNEFIKAITTGNPDRARQLADPNARFQVGDKRYHGMERYASTLKQQQNKMTQSLRVRDVDVKGDKIKVDAQSEMNHNGQPRRSQHNIDVNIQGDKIKRVRYTDDK", "protease stability score": -0.454},
      {"sequence": "DESVENTVTEILEAEQQNNEEELRRLADPNAEVRVGEKTIHGMDEAVHQIAHELKQQRVEYSDMKISVNNGRARIDVEVEVEKNGRPHTSHYERTIEMHNGRMTHMEQRDDG", "protease stability score": -0.524},
      {"sequence": "DEEKKARRWFESFIEVFRSNDPDQAKKLADPNVRAEYGDKHYHGREEFMKHFITLAERVDHVDIELHSLRIDGNRIVMNMRYRLRYNGRTESNEVTVILVIKNGKLHIQEVREG", "protease stability score": 1.41},
      {"sequence": "DEEKLEELAEEILQMLQTGDPDQARRMADEDVRAEYGDKQYTGKERLVEVVRKLKDRADHARINSFEVEGENIVADFVMVVDGQERRVRMTARVENGRIKEVRVKTS", "protease stability score": 0.96},
      {"sequence": "DHERLKEFIKIQQENNPDQLRNQMDPNVKARVGDKEFKGREQVVKWLKRIMDQADHIHYDDLKSQGNSVTINAVVEVNGKSFQYNMVVEFHNGRIREIKVEVRNHRVKEILERIEG", "protease stability score": 1.62},
      {"sequence": "DKREQSEIAKEVLRMLLTGDPDQNHKLADKDVQFSVGDRTITGREDLDRWLREMHHHIDTQEVKSLDVNGEDVVIDVVATFNGVHMRFVIRVEVHNGRIVNMRMEVTSEETLKRVDG", "protease stability score": -0.092},
      {"sequence": "DDHETAKQIMETWKQIVEDGDEHQAQRMADPNVHANIGDHTVHGKEEFKKMLRTWRDRVDRIEVTFRHIEVTGNKLIVVVDVRLDVNGKEIHVHMVLNAQKQGDEAKVETVVVE", "protease stability score": 1.24},
      {"sequence": "DEETDAKKAKDDMQHVANTNNPKDRETLLDENAEIVVGDEKYQGRHDVQKLNQEIEKRVDEVRVEVTEVTIQGDKLHVDAVFRVRVNGKTEQDRKVIVMDIHNGSVKVRFIHQP", "protease stability score": 0.94},
      {"sequence": "DQEKNNHDAKKWVKNLRTGNEDELQRLFDEDARFNYGDKTVTGREQLQEWAHRMQRRIDSVDVRSVSQHGDKMNIDVVVRVDGRDRRFIFRAEIHNGRIKNAWMEDT", "protease stability score": 0.497},
      {"sequence": "DEHAVEVAKKIVEAWKDGDPKRFNELFDPNAQLRVGDHHFHGSHEADRHMQTINKEQRVRYKNVRVESRPGRVEVRVDMEKTHDGRPRRSEFTVQINVHDGQVKKLTVQEDG", "protease stability score": 0.239},
      {"sequence": "DEEKDEKIRKWQTNVKHGNEDEIRKNADKDAHVHVGDKQYHGHHRIRKLMTNERRKMRVDQKIETVSANNGRATVIVSATFDVNGQPLTDRENVVLIMHNGKIQEVRVDMDPDLHRQLQS", "protease stability score": -0.51},
      {"sequence": "DREERHRAEQWLNAIKTNNPDDVVEQADKDVRLEVGEERVSGRSELRKEVDKDRKRWDFEIDHVDIKVHNGRIHMTVDVVVRHNGKPDKQEQEYTIEFSNGRARTIVARQNK", "protease stability score": -0.229},
      {"sequence": "DRQASEVARKILQAIRKGDPETMKELVDPNVNVTVGEKTFKGREEAARHFVERQKQIRVQVDSMEVSAHNGKVDARMKVLYNHNGRPVKMDVVVHFDMKNGKARRAEYRVDEEQRRRLET", "protease stability score": 0.082},
      {"sequence": "DEEHQKKMAEDFVKALERGDKDQFHSLFDENAKMQYGDKTVHGREDVKRWVEHVKERVDHLKVDKIEVSGNKVVLKMVINVDGQRLDMVITIHLHNGHIQSAEARVTDPDQERKANS", "protease stability score": 1.26},
      {"sequence": "DDSNNEIVKHMLEALHTGDPDQMSRLVDPNVRVNVGNKEVHGREQQREEVEKIKRDMRFEADLDDYHVHGEHLEFKVTYKAQINGKPYHFSADLNLTFHNGKLQSESARMDQHELEKLDG", "protease stability score": 0.029},
      {"sequence": "DDHAQRHLKELLKVINTGDEEEVEHMADPNARIQVGDKVFHGMRSYVDDIRRKKEELNVEYNVRRMDADGNRVEANVDVVFNHNGKPDRRTVDMKATIRNGKIKSMHWQENP", "protease stability score": -0.227},
      {"sequence": "DEDLLKQLHTYLRAHETGDRSRLRKLMDPNAEVRIGNHELHGREEILTQQVEEAHKITQYFEIDSVEVRPNSIKVKAHVSMNVNGQPFRTEVEYDVRIRNGRIQEITYRLPEEFLREVNR", "protease stability score": -0.229},
      {"sequence": "DEEVSEAVQRYLNALKHNNPDQVQEQMDPNARVQYGDKVLTGREDIKTFMDTKIEQMRLEIKSVSVDVHGEEVRVEADVVYTHNGQPRRNKITITARVHNGVFKSMRVETRG", "protease stability score": -0.064},
      {"sequence": "DNTIKRKFHDLIRAWQTNDENRYMQLFDPNVKIRVGNQQFHGREDWSKWFREQMTHLRNDFTVKSLEVDGDKVVADIVAVLSINGRPNKMRVDYRMTVHNGKIKSAEMRFSHEIETKIEQ", "protease stability score": 1.46},
      {"sequence": "DHEDLVKRFIETMKEIYHTGNFRELANLADEDVQIHVGDKTVTGREHLRKEQETTERHADHATMRVDEVEVDGDKARVVFTVTIQVNGEKRSDRLVVEFRVHNGQLRIKSMRQQ", "protease stability score": 1.05},
      {"sequence": "DEDKVAHDMMKEIQSIFERGDRDTWRRMFDPNAEMHVGDKRIHGREHFSRWAQRSVERVDHHEMHVRSVSVDNGTITVSAVEVENVNGHEDKRRFVVRANLEGDKVQWKRRSEQ", "protease stability score": 0.096},
      {"sequence": "DEEHARELVENFKRNNWQEFEKMADKDVRAHVGDWNVHGRETFSRMMKHLVDQIDHISVDSVDVDEDTVEIHFSFDINGQDVTAVLRVELHNGKIKSMELDARDENARDVLRKVWR", "protease stability score": 0.099},
      {"sequence": "DDQLFRVLQELWKALQEGDHKHAIDQAPEDARFHVGEKNYHGMEDAAKHLAEFYKQIRVRIEIKRYEINGDSLNVHVVVQMNNNGKPERRRNVILAKLHNGRMLEMQVHDRE", "protease stability score": 0.064}
    ]}
  ]
}
